Test results: US20130260436A1, “Methods of Identifying and Characterizing Natural Product Gene Clusters” (Victoria LInk Limited, priority 2010, published 2013)
Where “and” joins values, the source holds several entries; their conditions need not be identical. Identical values can stand only once.

B1: slPvdD1: mBpsA with T-domain from first module of pvdD of P. aeruginosa PAO1; SEQ ID NO: 5 (protein)
chain: MTLQETSVLEPTLQGTTTLPGLLAQRVAEHPEAIAVAYRDDKLTFRELASRSAALADYLEHLGVSADDCVGLFVEPSIDLMVGAWGILNAGAAYLPLSPEYPEDRLRYMIENSETKIILAQQRLVSRLRELAPKDVTIVTLRESEAFVRPEGTEAPAARSARPDTLAYVIYTSGSTGKPKGVMIEHRSIVNQLGWLRETYAIDRSKVILQKTPMSFDAAQWEILSPANGATVVMGAPGVYADPEGLIETIVKHNVTTLQCVPTLLQGLIDTEKFPECVSLQQIFSGGEALSRLLAIQTTQEMPGRALINVYGPTETTINSSSFPVDPADLDEGPQSISIGSPVHGTTYHILDKETLKPVGVGEIGELYIGGIQLARGYLHRDDLTAERFLEIELEEGAEPVRLYKTGDLGQWNNDGTVQFAGRADNQVKLRGYRVELDEISLAIENHDWVRNAAVIVKNDGRTGFQNLIACIELSEKEAALMDQGNHGSHHASKKSKLQVKAQLSNPGLRDDAELAARPAFDLEGAEPTPEQRARVFARKTYRFYEGGAVTQADLLGLLGATVTAGYSRKAADLAPAELGQILRWFGQYISEERLLPKYGYASPGALYATQMYFELEGVGGLKPGYYYYQPVRHQLVLISEREATGKATAQIHFIGKKSGIEPVYKNNILEVLEIETGHMVGLFEQILPAYGLDIHDRAYEPAVKDLLDVADEDYYLGTFELVPHAGARDDQAEVYVQTHGGKVAGLPEGQYRYENGELTRFSDDIVLKKHVIAINQSVYQAASFGISVYSRAEEEWLKYITLGKKLQHLMMNGLNLGFMSSGYSSKTGNPLPASRRMDAVLGANGVDSAPMYFFVGGRISDEQIGHEGMREDSVHMRGPAELIRDDLVSFLPDYMIPNRVVVFDRLPLSANGKIDVKALAASDQVNAELVERPYRAPGSELEQRIAAIWSEILGVERVGLDDNFFELGGHSLLATRVISRVRQEQQLDASLKALFERPVLEAFAQGLEREVAQESSRFVRLHAETGKARPVICWPGLGGYPMNLRSLAGEIGLGRSFYGVQSYGINEGETPYETITEMAKKDIEALKEIQPAGPYTLWGYSFGARVAFETAYQLEQAGEKVDNLFLIAPGSPKVRAENGKVWGREASFANRGYTTILFSVFTGTISGPDLDRCLETVTDEASFAEFISELKGIDVDLARRIISVVGQTYEFEYSFHELAERTLQAPISIFKAVGDDYSFLENSSGYSAEPPTVIDLDADHYSLLREDIGELVKHIRYLLGE
B2: slEntF: mBpsA with T-domain from entF gene of E. coli W3110; SEQ ID NO: 11 (protein)
chain: MTLQETSVLEPTLQGTTTLPGLLAQRVAEHPEAIAVAYRDDKLTFRELASRSAALADYLEHLGVSADDCVGLFVEPSIDLMVGAWGILNAGAAYLPLSPEYPEDRLRYMIENSETKIILAQQRLVSRLRELAPKDVTIVTLRESEAFVRPEGTEAPAARSARPDTLAYVIYTSGSTGKPKGVMIEHRSIVNQLGWLRETYAIDRSKVILQKTPMSFDAAQWEILSPANGATVVMGAPGVYADPEGLIETIVKHNVTTLQCVPTLLQGLIDTEKFPECVSLQQIFSGGEALSRLLAIQTTQEMPGRALINVYGPTETTINSSSFPVDPADLDEGPQSISIGSPVHGTTYHILDKETLKPVGVGEIGELYIGGIQLARGYLHRDDLTAERFLEIELEEGAEPVRLYKTGDLGQWNNDGTVQFAGRADNQVKLRGYRVELDEISLAIENHDWVRNAAVIVKNDGRTGFQNLIACIELSEKEAALMDQGNHGSHHASKKSKLQVKAQLSNPGLRDDAELAARPAFDLEGAEPTPEQRARVFARKTYRFYEGGAVTQADLLGLLGATVTAGYSRKAADLAPAELGQILRWFGQYISEERLLPKYGYASPGALYATQMYFELEGVGGLKPGYYYYQPVRHQLVLISEREATGKATAQIHFIGKKSGIEPVYKNNILEVLEIETGHMVGLFEQILPAYGLDIHDRAYEPAVKDLLDVADEDYYLGTFELVPHAGARDDQAEVYVQTHGGKVAGLPEGQYRYENGELTRFSDDIVLKKHVIAINQSVYQAASFGISVYSRAEEEWLKYITLGKKLQHLMMNGLNLGFMSSGYSSKTGNPLPASRRMDAVLGANGVDSAPMYFFVGGRISDEQIGHEGMREDSVHMRGPAELIRDDLVSFLPDYMIPNRVVVFDRLPLSANGKIDVKALAASDQVNAELVERPGRAPKAGSETIIAAAFSSLLGCDVQDADADFFALGGHSLLAMKLAAQLSRQVARQVTPGQVMVASTVAKLATIIDREVAQESSRFVRLHAETGKARPVICWPGLGGYPMNLRSLAGEIGLGRSFYGVQSYGINEGETPYETITEMAKKDIEALKEIQPAGPYTLWGYSFGARVAFETAYQLEQAGEKVDNLFLIAPGSPKVRAENGKVWGREASFANRGYTTILFSVFTGTISGPDLDRCLETVTDEASFAEFISELKGIDVDLARRIISVVGQTYEFEYSFHELAERTLQAPISIFKAVGDDYSFLENSSGYSAEPPTVIDLDADHYSLLREDIGELVKHIRYLLGE

Legend:
[1] = system: E. coli harbouring an activating PPTase; assay: In vivo pigment synthesis activity of BpsA derivatives relative to wild type BpsA; type: cell-based; conditions: for Relative activity (in vivo pigment synthesis relative to wild type BpsA): E. coli, supernatant A590
Description: A detailed description of the method used for generation of mBpsA derivatives is given in Section 4.15. Briefly, a plasmid containing bpsA lacking its native T-domain (pBPSA3) was created. This plasmid contained restriction enzyme sites which were subsequently used to introduce foreign T-domain sequence. Foreign T-domains were then amplified from the chromosomal DNA of their host organisms and introduced into pBPSA3 to generate mBpsA derivatives which contained T-domains from foreign NRPS proteins in place of the native T-domain. Only the final embodiment of the T-domain swapping platform is described in this application. This embodiment is the result of rational in-silico design as well as trial and error, which are not described. Using this final platform, five different mBpsA derivatives were generated and subsequently assessed for in vivo pigment synthesis capacity in E. coli harbouring an activating PPTase. Table 3.1 gives a summary of the mBpsA derivatives generated as well as their in vivo pigment synthesis activities relative to wild type BpsA. The derivation of in vivo pigment synthesis activity was as described in 4.10.
For second tier screening, up to 45 improved clones, along with a positive and negative control, were stored as duplicate glycerol stocks in a 96wp. From this plate duplicate overnight cultures were established in LB supplemented with 0.4% glucose and appropriate antibiotics. […] Overnight cultures were grown for 16-20 h (37° C. 200 rpm) before transfer of 20 μl of each culture into a fresh well containing 130 μL LB supplemented with 115 mM L-Gln, 0.6 mM IPTG and appropriate antibiotics. Assay plates set up in this fashion contained duplicate cultures for each clone from two separate overnights. Assay plates were then wrapped in foil and incubated for 6-24 h (18° C., 200 rpm), depending on activity of improved clones. After incubation cells were collected at the corner of each well by centrifugation and OD 590 values determined using a microplate reader. Assays were repeated at least twice before determination of clones for sequence analysis.
In vivo pigment synthesis efficiencies for recombinant BpsA proteins described in Section 3.2 were derived from three separate assays. This was necessary due to the fact that pigment synthesis of wild type BpsA saturate before activity of mBpsA derivatives was detectable. Replicate cultures for determination of in vivo pigment synthesis activity were established from overnight starter cultures in a 96 wp as described in Section 4.9.3 The values presented are derived as follows: quadruplicate values for WT BpsA and oBpsA (mutant with reduced activity) were determined after 3 h, at which point pigment production was not saturated for WT. A separate quadruplicate assay was then run to obtain a value for slEntF by comparison to oBpsA after 12 h. Quadruplicate values for slPsT and slPvdD2 were then obtained in a separate assay by comparison to slEntF after 12 h.

[2] = target: PcpS, phosphopantetheinyl transferase of Pseudomonas aeruginosa PAO1 (Pseudomonas aeruginosa PAO1); assay: cell-based or functional assay
[3] = target: PP1183, putative phosphopantetheinyl transferase of Pseudomonas putida KT2440 (Pseudomonas putida KT2440); assay: cell-based or functional assay
[4] = target: Sfp, phosphopantetheinyl transferase of Bacillus subtilis subsp. spizizenii ATCC6633 (Bacillus subtilis subsp. spizizenii ATCC6633); assay: cell-based or functional assay
[5] = system: BpsA, single module non-ribosomal peptide synthetase of Streptomyces lavendulae ATCC 11924, purified recombinant 6His-tagged protein (apo form)

| Molecule | Relative activity (in vivo pigment synthesis relative to wild type BpsA) [1] | IC50 (carrier protein competition with BpsA for limiting CoA) [2] [µM] | kcat/Km (estimate derived from IC50) (Min^-1 · µM^-1) [2] | IC50 (carrier protein competition with BpsA for limiting CoA) [3] [µM] | kcat/Km (estimate derived from IC50) (Min^-1 · µM^-1) [3] | IC50 (carrier protein competition with BpsA for limiting CoA) [4] [µM] | kcat/Km (estimate derived from IC50) (Min^-1 · µM^-1) [4] | also measured |
| --- | --- | --- | --- | --- | --- | --- | --- | --- |
| slDhbF: mBpsA with T-domain from first module of dhbF of B. subtilis; SEQ ID NO: 13 | 0% |  |  |  |  |  |  |  |
| The peptide carrier protein of the Microcysitis aeruginosa NRPS/PKS MycG (mPCP), purified recombinant His6 tagged |  | 0.99 | 5.55 | 0.18 | 6.3 | 0.15 | 3.33 |  |
| The aryl carrier protein from Nostoc punctiforme protein HetM (npArCP), purified recombinant His6 tagged |  | 8.46 | 0.65 | 6 | 0.19 | 0.14 | 3.51 |  |
| PcpS, phosphopantetheinyl transferase of Pseudomonas aeruginosa PAO1 |  |  |  |  |  |  |  | Km (BpsA as variable substrate), BpsA coupled indigoidine assay [5]: 6.5 µM; kcat (BpsA as variable substrate), BpsA coupled indigoidine assay [5]: 0.687 s⁻¹; kcat/Km (BpsA as variable substrate), BpsA coupled indigoidine assay [5]: 107000 M⁻¹ s⁻¹ |
| The peptide carrier protein of the first module of the Pseudomonas aeruginosa NRPS PvdD (pPCP), puri |  | 0.56 | 9.84 | 0.28 | 4.1 | 0.45 | 1.11 |  |
| B1 | 0% |  |  |  |  |  |  | In vivo pigment synthesis capacity (qualitative) ([1]; E. coli with activating PPTase, pigment development agar or broth): completely inactive enzyme |
| B2 | 5.14% and 5.14 +/− 0.28% |  |  |  |  |  |  |  |
